Reference: article PMC4780704, “A Parallel G Quadruplex-Binding Protein Regulates the Boundaries of DNA Elimination Events of Tetrahymena thermophila”

Legend:
[1] = target: T1, His-Lia3 (Tetrahymena thermophila, UniProt A3F815 1-322); test: EMSA; 100 mM KCl; EMSA: 10 mM Tris pH 7.5, 1 mM EDTA, 0.1 mM DTT, 5% glycerol, 0.010 mg/ml BSA, 100 mM KCl (or 100 mM LiCl to limit G4), 4 nM probe, RT; settings: protein: recombinant; tags: N-terminal His; label: 32P (5' PNK); mixed G4 (100 mM KCl)
T1 sequence: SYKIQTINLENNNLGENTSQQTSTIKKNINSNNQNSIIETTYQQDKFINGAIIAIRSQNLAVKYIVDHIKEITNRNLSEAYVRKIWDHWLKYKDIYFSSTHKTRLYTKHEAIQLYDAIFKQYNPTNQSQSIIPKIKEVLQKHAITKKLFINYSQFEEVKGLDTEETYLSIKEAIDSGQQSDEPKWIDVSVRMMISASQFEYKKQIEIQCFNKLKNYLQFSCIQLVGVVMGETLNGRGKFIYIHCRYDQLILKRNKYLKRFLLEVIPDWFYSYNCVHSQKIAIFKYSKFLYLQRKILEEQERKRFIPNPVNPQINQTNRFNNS

[2] = target: T2, MBP-Lia3 (Tetrahymena thermophila, UniProt A3F815 1-322); test: competition; excess vs G4-M1 probe; 400 nM protein; EMSA: 10 mM Tris pH 7.5, 1 mM EDTA, 0.1 mM DTT, 5% glycerol, 0.010 mg/ml BSA, 100 mM KCl (or 100 mM LiCl to limit G4), 4 nM probe, RT; settings: protein: recombinant; tags: N-terminal MBP-TEV-His; linear, no G4
T2 sequence: T1 sequence

[3] = target: T1, His-Lia3; test: competition; 5X/20X vs G4-M1 probe; EMSA: 10 mM Tris pH 7.5, 1 mM EDTA, 0.1 mM DTT, 5% glycerol, 0.010 mg/ml BSA, 100 mM KCl (or 100 mM LiCl to limit G4), 4 nM probe, RT; settings: protein: recombinant; tags: N-terminal His; parallel intermolecular G4, 4 strands (100 mM KCl)

B1: G4 Tetrahymena telomere (structured_DNA)
DNA: TTGGGGTTGGGGTTGGGGTTGGGG
[1]
  Kd: 11.5 µM

B2: M1-C3 (C3G2 mutant) (ssDNA)
DNA: TTTATTAATCAAAAACCCGGTAAATAATAA
[2]
  binding result: no binding

B3: G4-M2 (structured_DNA)
DNA: TTCAAGACAAAAAAAGGGGGATGGGTTTCC
[3]
  binding result: binds
